Assay: soluble on expression in E. coli; label from the status in PepcDB or PDB records

Sequence | soluble on expression in E. coli
MSLYRLLIVEDEHLIRKWLRYAIDYQSLNILVVGEAKDGKEGAQLIQEEQPDIVLSDINMPIMTAFDMFEATKGQSYAKIILSGYADFPNAQSAIHYGVLEFLTKPLEKQALIDCLKTIMARIEEHKEKHLQEHTELYLPLPQANDQVPEVIKDMLAWIHSHFHGKIVISQLAHDLGYSESYLYTVTKKHLHITLSDYINQYRINQAIQLMFREPDLMVYQIAEAVGIYDYRYFDRVFKKYLGQTVKAFKEEHIFKQMDEGHHHHHH | soluble
MLNSLEAYNENKFIVFGINDNKEIIGLEKNMFDDAHYQNIIDEYINPRPKIETGQIEYNDEKIGYIAINSNNLETPYELKKELRIKKSKSSLSKGLSFIRKGSTNTPIIQEEREKLILKKTEKNPNNKNLFTALNQKNHAIEEIYYKDNKKSGRKKLDPSNNNGRFTIGELSYEFEMILDVASNEIARIMKTDTIKVARIKNYKDNDIYYELQENLKSPNEVVKKLDTSSRSRDFTLKDLGILINKHGRIAEIFFKEIKSESHGSEENIVEIEWNIPDTKLEHHHHHH | not soluble
MADNWGSENVVADAAPATEAPEVALFGKWSLQSVNVSDISLVDYIPVKEKSAKYLPHSAGRFQVRRFRKAACPIVERLANSLMMHGRNNGKKLMTVRIVKHAFEIIYLLTGENPVQVLVNAVINSGPREDSTRIGRAGTVRRQAVDVAPLRRVNQAIWLLCTGAREAAFRNVKTIAECLADELINAAKGSSNSYAIKKKDELERVAKSNR | not soluble
MKNYPVKKNDVIEVEIIDLTHEGLGVAKVDHYPLFIENALPGEKLEIKVLKTGKSFGYGKVLTVLKSSEQRVPVKDENFTKVGISPLQHLAYGAQLSFKTQQVENVMQRVAKLQEVPVLPTIGMNDPWHYRNKAQIPVRKIDNQLQTGFFRKNSHDLIPMEHFYIQDPEIDAAIVKIRDIMRKYSVKPYNESDNTGNLRHIVVRRGYHTGEMMVVLITRTPKLFPISKIVPDILEAIPEVVSIVQNVNPKRTNVIFGDETILLHGSEKITDTIFDLKFEISARSFYQVNPQQTEVMYQKVKEYAALTGNEIVVDAYCGIGTIGLTLAQDAKQVYGIEVIEEAVKDAENNAKLNNIENATFTAGLAEELLPKLVENGLQPDVVVVDPPRKGLDGQLVNTLIETQPERIVYVSCNPATLARDIALLTEGGYEAKEIQPVDNFPQTTHIESVTLLTKAVD | not soluble
MGSDKIHHHHHHMKINMPENVQTILNKLHSNGYQAYIYGACIRDYLLGKEPINWDITTNALPNNTVVIFDENEGFTSIPSVEDYGIVTLHFKGESCQVNTFRTGEARRFADDISEDLLHKDFTMNSIAYNEQAGIVDPYNGVGDIEKRLIRCAQNPYEQMQEDSARILRAVRFESQLGFKIEAELLQAMKDLKDTVPASGSRVRNEFIQLLLSEQPSRSIRRLLELGLLERLIPELMPAIGFDTHSSYHDKDVFEHSLVVLDNTEPNLTLRLAALLHDIDKPNCLTIDEDGEGHCYGHASGGSEMAQAILGRLNFDRKTIQAVSSLIKEHMNDFGNISDLSIKRLIRRVGPDNIDRLFELQLADIKGSALSSRDPERITKIRNKCFEVLSRREPLTVHDLDISGYDLLSLGYPPGKKIGETMDYLLDQVIDNPSLNQRDTLIALLKNRK | not soluble
MGSDKIHHHHHHMTRFRSTLPQVNGTTLLTDSGLETTLIFHDGLDLPCFAAYPLMETAEGRAVLRDYFQRHLAIASERSAGFLLESPTWRASRDWGAQLGHGPDDLARLNNDAIAMLVDLRDDATGVGPIVISGNIGPRGDGYVADAAMTADEAEDYHAEQIGWFAQSEVDLATAVTLSTVAEGVGVIRAAHRVDLPVVVSFTTETDGRLPDGTPLGRAIEQTDALTDGAAAYFMVNCAHPDHFRPVLDTGTAWLNRIGGVRANASRMSHAELDEAETLDAGDPAELGRDYRDLRQILPNLTVIGGCCGTDHRHIEAMADRCLGHNAA | not soluble
MSLDDEPLLPDFEQLGYPRNLPTLVLGLRGMICEITHSKKNGWGIVKRPGVDKFFNILKNYYEIVIWSDESFPIPHEVLEKWNLPIIGILNKNHFSKINGKLFKNLSRLGRNLNRVILVDNESYSANIQYDNSIVLPIFKGDPYDNELNSIIDLLKAAAMQPGDIREYLKRFRCNDTNIGDEGHHHHHH | soluble
KSDSENIKDVKLQLNYAYEIIPVDYTNCNIDYLTTHDFYIDISSYKKKNFSVDSEVESYITTKFTKNQKVNIFGLPYIFTRYDVYYIYGGVTPSVNSNSENSKIVGNLLIDGVQQKTLINPIKIDKPIFTIQEFDFKIRQYLMQTYKIYDPNSPYIKGQLEIAINGNKHESFNLYDATSSSTRSDIFKKYKDNKTINMKDFSHFDIYLWTK | soluble
MGSDKIHHHHHHMQFNKPLRQGVLQKRYKRFLADIDFGDNETTTTHCPNTGAMTGCAEPGFTAWCSVSDNPKRKYSLTWELAQNNNGEMIVVNTQHANRMAGELLQTNLVPELSQWQELKPEQRYGKEKSRIDWWGVDQHNRECFIEVKSVTLADASQGYFPDAVSQRAHKHLNELMQVVADGHRAVQLYMVMHDGIERVSPAAHIDSQYAELCRKAASVGVEFYAVKCRASAKEIKLERPVPVSL | not soluble
MSLRHGIQAVFLIEKISKCNSLESLSLLVKERQAVFEAMIESHLPANVIGQVLMMIYDAFTCRLIKLAERNVGLPPCNYAWLAAGSHARGEVHLGSDQDNALVLDDSATESDRIYFRHFAMYICKGLAECGYPLCNGRFMAATPKWNQPLFIWKQLYRKWANNPEYNMLLNLNVFLEVRFISGDRSLFDELNSERERCTKNNPHLIAALVRNLISHRPPLGIFNNLVLENNGHNEKSLNIKKSAIGLLVDIARIYALHKGGGMLSTEERFDFAYDRGLINSTSHQDLIGTYRYVTQLRYSHQLQCLQGGKPVTNAIFPEHFGSFERQHLKDAFRIIRGYQDTLKMKFGSEGHHHHHH | soluble
MMLYFITFREARVLLKSRDLALINVDLMKTGKKIRVRVSKDYVEFPDGSRVKKEIIKRIAEDEGNVYFVRDGEVFKAAIAGEHFYKLVPTIPPTIEINGIRMHRTKGTDPLKDTIAKVNTVKPREGEVVLDTCMGLGYTAIESAKRGARVITIEKDPNVIELAKINPWSRELFESPKIKILQGDSFDLIKKFEDESFDVIIHDPPRFSLAGELYSEEFYMEMFRVLKPGGRLFHYVGNPGKRYRGLDLQKGVMERLRRVGFMKVRRVQEALGVFALKPSLE | soluble
MGSDKIHHHHHHMAIKATDLFKLVSLSYPSATDDGYFVQENRISEADNTYYQRICFVNHRGGTIAYGFDQKHDRHPLLSPDQQWLAFLSQASDKTTQVFLQAVNGGTAKQFSAEKEGVSYFGWQADSQALFIQTTVGAKPKKTDKQWPQPVTVSRVPYKLNGVGLLPEHVAYELRVQRLRQKTSRLVMGREHEFEVGAISPDGQTLAFTAERLPDDPNDFSQATYLLNLADQQVTMVNDQLPQAALSPEAFSADGKQLLLVGSDNHLPNVSQSHLWHYDLATKTLQDVADDIDFDIPGHVNGDFQQDLSEKVADFATADYYLTIGFDHGKTSLYAGGPDEQLTPLIGGRRHVTDYALTPDHHGVVFTESTMTVPSRLSYFDLATEEEHVIYDPNRRVTRDMGLVTPQTFNFQRDGFEIEGWYFPPQQATASHPAILYVHGGPAVGYGYTFFHEMQFLAA | not soluble
MGTKQYKDGTYYAEADDFDESGWKDTVTIEVKNGKIVSVDWNAINKDGGDDKDTLSRNGGYKMVEYGGAQAEWHEQAEKVEAYLVEKQDPTDIKYKDNDGHTDAISGATIKVKKFFDLAQKALKDAEKLEHHHHHH | soluble
MTITQKGDHHSILAKLRHRNIILAKLEKAYKIPSSNIKNIWTQLNEKIEHTIADFIRLLAKQMFINRYLKSCIRISKAEKKRDTVSLVHHLFYNNAA | not soluble
GMVTTRKPLRAAIIGLGRLGERHARHLVNKIQGVKLVAACALDSNQLEWAKNELGVETTYTNYKDMIDTENIDAIFIVAPTPFHPEMTIYAMNAGLNVFCEKPLGLDFNEVDEMAKVIKSHPNQIFQSGFMRRYDDSYRYAKKIVDNGDIGKIIYMRGYGIDPISGMESFTKFATEADSGGIFVDMNIHDIDLIRWFTGQDPVQAYGLTSNIAAPQLADIGEFETGVAQLKMSDGVIATLIGGRHAAHGNQVELEVMGSNGWVRIGEHPDLNRVTVFNDQGVVRPSLQSFGERFDTAFTDEVQDFVNNVIVGKQPEVTVDDGIKALKIAKACQQSANIGKLVDIQL | soluble
MSLSTIDLHVHSNYSDGIHPPADLVKMAAERGLVAIAIADHDTVDGIDEALIAGARLGVEVVPAVELSAEHGRYRDMHILGYHLDHRDPRLVDMLAEFRINREIRGRAIVDKINQRLADGRKPLLSYDEVLNLAEGAVGRPHIGRMLIERGYARNMEDAFRRYLIPCNVPKRYIPAGDAITEIRRAGGVAVLAHPITVSDDRQVLRGIVSELVALGLDGIEVFNNMCYKDDMLFLEFLCRESGLLMTGGSDFHGFEDDVEIGSGREGHHHHHH | not soluble
MSHDVKELIEGLNEDLAGEYSAIIMYNHNAATVSGIYRQVLKPFFESEISDEQGHALYLAEKIKTLGGTPTTIPLRVKQAEDVREMLEYARQSEYETIKRYEKRKEQAANLNMTELVVKLEDMIADETNHMEELDRLLNDKAMVLN | soluble
MKKVSVLIVAKNEANHIQECIESCRFDKEVIVIDDYSTDNTAEIAEGLGAKVFRRHLNGDFGAQKTFAIEQAGGEWVFLIDADERCTPELSDEISKIVQTGDYAAYFVERRNLFPNHPATHGAMRPDSVCRLMPKKDSSVQGKVHETVQTPYPKRRLKHFMYHYTYDNWEQYFNKFNKYTSISAEKYREQGKPVRFVRDIILRPIWGFFKIYILNKGFLDGKMGWIMSVNHSYYTMIKYVKLYYLYKSGGKF | not soluble
EKALSKQYLQTAKDKITSLKNLKVIAITGSFGKTSTKNFLLQILQTTFNAHASPKSVNTLLGLANDINQNLDDRSEIYIAEAGARNKGDIKEITCLIEPHLVVVAEVGEQHLEYFKTLENICETKAELLDSKRLEKAFCYSVEKIKPYAPKDSPLIDYSSLVKNIQSTLKGTSFEMLIGSVWERFETKVLGEFSAYNIASAILIAKHLGLETERIKRLVLELNPIAHRLQLLEVNQKIIIDDSFNGNLKGMLEGIRLASLHKGRKVIVTPGLVESNTESNEALAQKIDGVFDVAIITGELNSKTIASQLKTPQKILLKDKAQLENILQATTIQGDLILFANDAPNYI | not soluble
MAFALWYSLQERAPVVERSLKVPLQVVGLGEGRRALGLPREVLLRLRGPAPLLEGRALPVSAYLDLSGAEGEVVREVRVAAPQGVEVLEVVPARVGVVVEVEAQRQIPVEVLAQGAWVLTDPAFVEAVGPESQVEAAVSAVGLDLGDEVVLFPFGPEGPLEGVELRPNRVRVVERREALFLKEVPLSLKPPPGRRLLDYAPKTVRLVGPREALEGLAGVAATLQEALGPGEVEVAVAPDLPPGVQTLGPVRVRVALE | soluble
MSVSARSAAAEERSVNCGTMAQPKNLEGYVGFANLPNQVYRKSVKRGFEFTLMVVGESGLGKSTLINSLFLTDLYSPEYPGPSHRIKKTVQVEQSKVLIKEGGVQLLLTIVDTPGFGDAVDNSNCWQPVIDYIDSKFEDYLNAESRVNRRQMPDNRVQCCLYFIAPSGHGLKPLDIEFMKRLHEKVNIIPLIAKADTLTPEECQQFKKQIMKEIQEHKIKIYEFPETDDEEENKLVKKIKDRLPLAVVGSNTIIEVNGKRVRGRQYPWGVAEVENGEHCDFTILRNMLIRTHMQDLKDVTNNVHYENYRSRKLAAVTYNGVDNNKNKGQLTKSPLAQMEEERREHVAKMKKMEMEMEQVFEMKVKEKVQKLKDSEAELQRRHEQMKKNLEAQHKELEEKRRQFEEEKANWEAQQRILEQQNSSRTLEKNKKKGKIF | not soluble

Reference: the DeepSol protein solubility set
